{
  "source": "paper PMC11648230",
  "about": "“Structure–function analysis of tRNA t6A-catalysis, assembly, and thermostability of Aquifex aeolicus TsaD2B2 tetramer in complex with TsaE”",
  "binders": {"B1": {"name": "A. aeolicus tRNALysUUU (structured_RNA)", "RNA": "GAGCCGGUAGCUCAGUUGGUAGAGCAACGGCCUUUUAAGCCGUGGGUCGCGGGUUCGAGUCCCGCCCGGCUCACCA"}, "B2": {"name": "E. coli tRNALysUUU (structured_RNA)", "RNA": "GGGUCGUUAGCUCAGUUGGUAGAGCAGUUGACUUUUAAUCAAUUGGUCGCAGGUUCGAAUCCUGCACGACCCACCA"}, "B3": {"name": "T. maritima tRNALysUUU (structured_RNA)", "RNA": "GACCCGGUAGCUCAGCAGGCAGAGCACCUGACUUUUAAUCAGGGGGUCGUGGGUUCGAAUCCCACCCGGGUCACCA"}},
  "key": {"[1]": {"target": "AaTsaD;AaTsaB (Aquifex aeolicus;Aquifex aeolicus, UniProt O66986;O66494 1-335;1-200, |)", "sequence (O66986 whole entry, chain 1 of 2)": "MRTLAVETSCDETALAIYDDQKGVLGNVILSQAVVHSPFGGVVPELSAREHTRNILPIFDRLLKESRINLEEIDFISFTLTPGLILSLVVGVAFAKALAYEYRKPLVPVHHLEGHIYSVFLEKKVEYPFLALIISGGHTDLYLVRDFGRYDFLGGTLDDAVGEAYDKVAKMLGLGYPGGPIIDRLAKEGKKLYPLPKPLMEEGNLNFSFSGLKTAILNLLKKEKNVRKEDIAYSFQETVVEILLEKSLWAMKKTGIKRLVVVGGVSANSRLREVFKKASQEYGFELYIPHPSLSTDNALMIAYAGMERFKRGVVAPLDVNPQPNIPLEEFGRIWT", "sequence (chain, as listed by the source |, chain 2 of 2)": "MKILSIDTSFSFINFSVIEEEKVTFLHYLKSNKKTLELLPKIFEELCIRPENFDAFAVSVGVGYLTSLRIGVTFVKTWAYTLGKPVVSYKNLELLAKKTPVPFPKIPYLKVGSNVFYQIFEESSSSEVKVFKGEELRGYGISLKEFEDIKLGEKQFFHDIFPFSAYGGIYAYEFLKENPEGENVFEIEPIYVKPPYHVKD", "assay": "MST; not saturated at 100 uM; stronger than AaTsaDB; EMSA: 1 uM 6-FAM-tRNA, 0-100 uM protein, 2% agarose, 20 mM Tris-HCl/50 mM glycine pH 8.5 running buffer (loading buffer for native gels 20 mM Tris-HCl pH 7.5, 300 mM NaCl, 25% glycerol); MST: 10 nM tRNA, 20 mM PBS pH 7.5, 300 mM NaCl, 0.05% Tween 20, 25 C", "conditions": "protein: recombinant;recombinant; tags: ;C-terminal 6His; chain copies: 2;2; label: 5' 6-FAM; tRNA cloverleaf"}, "[2]": {"target": "AaTsaD del34-38;AaTsaB (Aquifex aeolicus;Aquifex aeolicus, UniProt O66986;O66494 1-335;1-200, del34-38|)", "sequence (O66986 other isoform, or with tags, fused parts or gaps del34-38|, chain 1 of 2)": "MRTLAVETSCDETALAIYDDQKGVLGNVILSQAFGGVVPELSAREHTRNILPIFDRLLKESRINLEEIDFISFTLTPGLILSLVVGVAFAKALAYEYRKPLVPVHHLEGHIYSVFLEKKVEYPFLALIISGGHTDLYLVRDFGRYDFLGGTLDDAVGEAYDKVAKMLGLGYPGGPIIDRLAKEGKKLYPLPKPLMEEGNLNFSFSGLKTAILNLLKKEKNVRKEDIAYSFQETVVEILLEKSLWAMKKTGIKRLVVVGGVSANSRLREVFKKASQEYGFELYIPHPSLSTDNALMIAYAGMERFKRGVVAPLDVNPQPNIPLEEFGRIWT", "assay": "EMSA; tighter than TsaD2B2; EMSA: 1 uM 6-FAM-tRNA, 0-100 uM protein, 2% agarose, 20 mM Tris-HCl/50 mM glycine pH 8.5 running buffer (loading buffer for native gels 20 mM Tris-HCl pH 7.5, 300 mM NaCl, 25% glycerol); MST: 10 nM tRNA, 20 mM PBS pH 7.5, 300 mM NaCl, 0.05% Tween 20, 25 C", "conditions": "protein: recombinant;recombinant; tags: ;C-terminal 6His; chain copies: 2;2; label: 5' 6-FAM; tRNA cloverleaf"}, "[3]": {"target": "AaTsaD;AaTsaBmut (Aquifex aeolicus;Aquifex aeolicus, UniProt O66986;O66494 1-335;1-200+=WEKKKRG, |internal_change)", "sequence (O66986 whole entry, change not shown, chain 1 of 2)": "as the sequence (O66986 whole entry, chain 1 of 2) above", "sequence (chain, as listed by the source |, chain 2 of 2)": "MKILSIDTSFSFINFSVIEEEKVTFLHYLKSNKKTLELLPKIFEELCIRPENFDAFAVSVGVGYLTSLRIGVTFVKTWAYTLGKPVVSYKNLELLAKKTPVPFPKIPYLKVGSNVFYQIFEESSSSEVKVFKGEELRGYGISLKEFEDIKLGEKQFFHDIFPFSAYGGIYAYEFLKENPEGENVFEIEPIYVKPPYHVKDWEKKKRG", "assay": "EMSA; TsaD2Bmut2 tetramer; EMSA: 1 uM 6-FAM-tRNA, 0-100 uM protein, 2% agarose, 20 mM Tris-HCl/50 mM glycine pH 8.5 running buffer (loading buffer for native gels 20 mM Tris-HCl pH 7.5, 300 mM NaCl, 25% glycerol); MST: 10 nM tRNA, 20 mM PBS pH 7.5, 300 mM NaCl, 0.05% Tween 20, 25 C", "conditions": "protein: recombinant;recombinant; tags: ;C-terminal 6His; chain copies: 2;2; label: 5' 6-FAM; tRNA cloverleaf"}, "[4]": {"target": "EcTsaD;EcTsaB (Escherichia coli;Escherichia coli, UniProt P05852;P76256 1-337;1-231, |)", "sequence (P05852 whole entry, chain 1 of 2)": "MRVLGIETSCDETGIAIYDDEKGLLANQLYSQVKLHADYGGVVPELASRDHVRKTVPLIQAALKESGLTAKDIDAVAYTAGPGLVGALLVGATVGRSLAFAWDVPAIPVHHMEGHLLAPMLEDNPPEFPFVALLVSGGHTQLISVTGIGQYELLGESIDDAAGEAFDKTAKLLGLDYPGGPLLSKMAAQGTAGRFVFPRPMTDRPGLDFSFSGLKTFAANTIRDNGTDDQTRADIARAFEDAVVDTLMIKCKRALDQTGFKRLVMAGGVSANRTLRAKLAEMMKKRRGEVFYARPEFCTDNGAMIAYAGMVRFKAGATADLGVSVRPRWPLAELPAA", "sequence (P76256 whole entry, chain 2 of 2)": "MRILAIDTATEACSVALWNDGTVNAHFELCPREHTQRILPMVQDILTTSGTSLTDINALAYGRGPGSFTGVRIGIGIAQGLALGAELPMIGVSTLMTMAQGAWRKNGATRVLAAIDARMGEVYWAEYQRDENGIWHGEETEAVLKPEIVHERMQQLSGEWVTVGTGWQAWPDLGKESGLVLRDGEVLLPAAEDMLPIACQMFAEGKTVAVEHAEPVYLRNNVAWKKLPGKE", "assay": "EMSA; TsaDB dimer; EMSA: 1 uM 6-FAM-tRNA, 0-100 uM protein, 2% agarose, 20 mM Tris-HCl/50 mM glycine pH 8.5 running buffer (loading buffer for native gels 20 mM Tris-HCl pH 7.5, 300 mM NaCl, 25% glycerol); MST: 10 nM tRNA, 20 mM PBS pH 7.5, 300 mM NaCl, 0.05% Tween 20, 25 C", "conditions": "protein: recombinant;recombinant; tags: ;; copies: 1;1; tRNA cloverleaf"}, "[5]": {"target": "TmTsaD;TmTsaB (Thermotoga maritima;Thermotoga maritima, UniProt Q9WXZ2;Q9WZX7 1-327;1-206, |)", "sequence (Q9WXZ2 whole entry, chain 1 of 2)": "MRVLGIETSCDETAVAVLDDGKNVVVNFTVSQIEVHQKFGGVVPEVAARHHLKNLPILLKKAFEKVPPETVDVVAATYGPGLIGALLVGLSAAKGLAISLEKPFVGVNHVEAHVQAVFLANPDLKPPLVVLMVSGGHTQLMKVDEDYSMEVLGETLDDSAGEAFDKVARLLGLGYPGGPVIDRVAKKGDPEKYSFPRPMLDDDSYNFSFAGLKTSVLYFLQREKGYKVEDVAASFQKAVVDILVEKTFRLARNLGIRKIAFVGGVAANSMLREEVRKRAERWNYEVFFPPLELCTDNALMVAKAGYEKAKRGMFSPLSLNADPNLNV", "sequence (Q9WZX7 whole entry, chain 2 of 2)": "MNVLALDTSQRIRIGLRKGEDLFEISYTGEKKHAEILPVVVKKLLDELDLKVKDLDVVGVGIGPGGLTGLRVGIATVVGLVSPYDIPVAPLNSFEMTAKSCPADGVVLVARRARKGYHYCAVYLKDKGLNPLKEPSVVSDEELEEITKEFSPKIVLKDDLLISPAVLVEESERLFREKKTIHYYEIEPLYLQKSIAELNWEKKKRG", "assay": "EMSA; TsaD2B2 tetramer; EMSA: 1 uM 6-FAM-tRNA, 0-100 uM protein, 2% agarose, 20 mM Tris-HCl/50 mM glycine pH 8.5 running buffer (loading buffer for native gels 20 mM Tris-HCl pH 7.5, 300 mM NaCl, 25% glycerol); MST: 10 nM tRNA, 20 mM PBS pH 7.5, 300 mM NaCl, 0.05% Tween 20, 25 C", "conditions": "protein: recombinant;recombinant; tags: ;; chain copies: 2;2; label: 5' 6-FAM; tRNA cloverleaf"}, "[6]": {"target": "TmTsaD;TmTsaB dimer-interface mutant (Thermotoga maritima;Thermotoga maritima, UniProt Q9WXZ2;Q9WZX7 1-327;1-206, |E20A;D21A;L22A;E24A;S26A;Y27A;T28A;E30A;K31A)", "sequence (Q9WXZ2 whole entry, stated change not applied, chain 1 of 2)": "as the sequence (Q9WXZ2 whole entry, chain 1 of 2) above", "sequence (Q9WZX7 whole entry E20A/D21A/L22A/E24A/S26A/Y27A/T28A/E30A/K31A, chain 2 of 2)": "as the sequence (Q9WZX7 whole entry, chain 2 of 2) above, with E20A, D21A, L22A, E24A, S26A, Y27A, T28A, E30A, K31A counted along it", "assay": "EMSA; TsaDB dimer; EMSA: 1 uM 6-FAM-tRNA, 0-100 uM protein, 2% agarose, 20 mM Tris-HCl/50 mM glycine pH 8.5 running buffer (loading buffer for native gels 20 mM Tris-HCl pH 7.5, 300 mM NaCl, 25% glycerol); MST: 10 nM tRNA, 20 mM PBS pH 7.5, 300 mM NaCl, 0.05% Tween 20, 25 C", "conditions": "protein: recombinant;recombinant; tags: ;; copies: 1;1; label: 5' 6-FAM; tRNA cloverleaf"}},
  "data": [
    {"binder": "B1", "values": [
      {"measurement": "binding result", "setting": "[1]", "value": "binds"},
      {"measurement": "binding result", "setting": "[2]", "value": "binds"},
      {"measurement": "Kd", "setting": "[3]", "value": "~1160", "unit": "nM"}
    ]},
    {"binder": "B2", "values": [
      {"measurement": "binding result", "setting": "[4]", "value": "no binding"}
    ]},
    {"binder": "B3", "values": [
      {"measurement": "Kd", "setting": "[5]", "value": 1200, "unit": "nM"},
      {"measurement": "Kd", "setting": "[6]", "value": 1720, "unit": "nM"}
    ]}
  ]
}
